Measurements taken from article PMC10786891, “Massively parallel profiling of RNA-targeting CRISPR-Cas13d”.
Substitutions are numbered along the chain they refer to. In names and notes the source's numbering stands.

T1: EsCas13d, nuclease-dead (Eubacterium siraeum, UniProt B0MS50, R295A;H300A;R849A;H854A)
T1 sequence: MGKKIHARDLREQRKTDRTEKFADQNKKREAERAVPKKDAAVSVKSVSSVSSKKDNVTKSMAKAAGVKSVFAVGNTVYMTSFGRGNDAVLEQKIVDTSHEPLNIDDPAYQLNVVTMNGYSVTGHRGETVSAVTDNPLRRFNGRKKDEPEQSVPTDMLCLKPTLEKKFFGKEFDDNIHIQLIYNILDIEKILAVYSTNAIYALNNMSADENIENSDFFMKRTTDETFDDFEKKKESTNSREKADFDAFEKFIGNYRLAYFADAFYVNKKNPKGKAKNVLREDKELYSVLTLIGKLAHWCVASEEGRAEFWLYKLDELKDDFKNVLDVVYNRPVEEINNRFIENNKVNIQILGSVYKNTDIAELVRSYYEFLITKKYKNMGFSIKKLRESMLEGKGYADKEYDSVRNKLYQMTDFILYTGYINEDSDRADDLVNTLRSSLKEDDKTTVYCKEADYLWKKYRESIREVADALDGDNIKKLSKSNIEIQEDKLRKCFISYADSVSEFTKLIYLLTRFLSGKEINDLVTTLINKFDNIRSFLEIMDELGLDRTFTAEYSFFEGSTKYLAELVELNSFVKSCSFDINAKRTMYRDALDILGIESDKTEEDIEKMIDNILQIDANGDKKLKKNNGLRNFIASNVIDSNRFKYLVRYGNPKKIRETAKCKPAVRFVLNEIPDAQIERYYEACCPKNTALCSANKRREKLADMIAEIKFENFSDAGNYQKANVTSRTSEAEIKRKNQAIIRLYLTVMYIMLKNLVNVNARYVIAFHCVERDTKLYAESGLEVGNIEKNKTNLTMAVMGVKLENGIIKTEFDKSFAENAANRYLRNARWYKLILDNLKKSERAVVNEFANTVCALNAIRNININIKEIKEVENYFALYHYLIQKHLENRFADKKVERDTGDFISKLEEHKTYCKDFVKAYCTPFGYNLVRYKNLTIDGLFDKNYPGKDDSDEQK

B1: target 1 G5C,A9U (mixed)
RNA 1: CACCCGUGCAAAAAUGCAGGGGUCUAAAACUGAGCGGAUAACCUCUCUAUGG
RNA 2: GGGAAUGGAUCCACAUCUACGAAUUCGUACCAUAGAGAGGUUUUCCCCUCACCGAGAUCGGAAGAGCACACGU
B2: target 1 insG 3' of 22,insG 3' of 4 (mixed)
RNA 1: B1 RNA 1
RNA 2: GGGAAUGGAUCCACAUCUACGAAUUCGUACGCAUAGAGAGGUUAUCCGCGUCACCGAGAUCGGAAGAGCACACGU
B3: target 1 insG 3' of 18,insG 3' of 6 (mixed)
RNA 1: B1 RNA 1
RNA 2: B2 RNA 2 with G31C, C32A, A33U, U34A, A35G, C49G, G50C
B4: target 1 insC 3' of 3,insG 3' of 3 (mixed)
RNA 1: B1 RNA 1
RNA 2: GGGAAUGGAUCCACAUCUACGAAUUCGUACCAUAGAGAGGUUAUCCGCUCGCACCGAGAUCGGAAGAGCACACGU
B5: target 2 MT 5'PFS UUA 3'PFS AUA (mixed)
RNA 1: CACCCGUGCAAAAUUGCAGGGGUCUAAAACCUUCUCCAAAUUGUUUCAUCCU
RNA 2: GGGAAUGGAUCCACAUCUACGAAUUCUUAAGGAUGAAACAAUUUGGAGAAGAUAAGAUCGGAAGAGCACACGU
B6: target 2 MT 5'PFS AGA 3'PFS AUA (mixed)
RNA 1: B5 RNA 1
RNA 2: B5 RNA 2 with U27A, U28G
B7: target 2 MT 5'PFS AGA 3'PFS AUG (mixed)
RNA 1: B5 RNA 1
RNA 2: B5 RNA 2 with U27A, U28G, A54G
B8: target 2 MT 5'PFS GGG 3'PFS CUU (mixed)
RNA 1: B5 RNA 1
RNA 2: B5 RNA 2 with U27G, U28G, A29G, A52C, A54U
B9: target 2 MT 5'PFS GGU 3'PFS AGU (mixed)
RNA 1: B5 RNA 1
RNA 2: B5 RNA 2 with U27G, U28G, A29U, U53G, A54U
B10: target 2 MT 5'PFS AUG 3'PFS UCA (mixed)
RNA 1: B5 RNA 1
RNA 2: B5 RNA 2 with U27A, A29G, A52U, U53C
B11: target 2 MT 5'PFS CUU 3'PFS UAU (mixed)
RNA 1: B5 RNA 1
RNA 2: B5 RNA 2 with U27C, A29U, A52U, U53A, A54U
B12: target 2 MT 5'PFS AAG 3'PFS CCA (mixed)
RNA 1: B5 RNA 1
RNA 2: B5 RNA 2 with U27A, U28A, A29G, A52C, U53C
B13: target 2 MT 5'PFS ACU 3'PFS CGA (mixed)
RNA 1: B5 RNA 1
RNA 2: B5 RNA 2 with U27A, U28C, A29U, A52C, U53G
B14: target 2 MT 5'PFS UUA 3'PFS AUG (mixed)
RNA 1: B5 RNA 1
RNA 2: B5 RNA 2 with A54G
B15: target 2 MT 5'PFS GGG 3'PFS CUC (mixed)
RNA 1: B5 RNA 1
RNA 2: B5 RNA 2 with U27G, U28G, A29G, A52C, A54C
B16: target 2 MT 5'PFS CGA 3'PFS CCA (mixed)
RNA 1: B5 RNA 1
RNA 2: B5 RNA 2 with U27C, U28G, A52C, U53C
B17: target 2 MT 5'PFS CGA 3'PFS UAC (mixed)
RNA 1: B5 RNA 1
RNA 2: B5 RNA 2 with U27C, U28G, A52U, U53A, A54C
B18: target 2 MT 5'PFS AUG 3'PFS UCU (mixed)
RNA 1: B5 RNA 1
RNA 2: B5 RNA 2 with U27A, A29G, A52U, U53C, A54U
B19: target 2 MT 5'PFS AAG 3'PFS CCG (mixed)
RNA 1: B5 RNA 1
RNA 2: B5 RNA 2 with U27A, U28A, A29G, A52C, U53C, A54G
B20: target 2 MT 5'PFS GGG 3'PFS CUA (mixed)
RNA 1: B5 RNA 1
RNA 2: B5 RNA 2 with U27G, U28G, A29G, A52C
B21: target 2 MT 5'PFS AGA 3'PFS AUC (mixed)
RNA 1: B5 RNA 1
RNA 2: B5 RNA 2 with U27A, U28G, A54C
B22: target 2 MT 5'PFS ACU 3'PFS CGG (mixed)
RNA 1: B5 RNA 1
RNA 2: B5 RNA 2 with U27A, U28C, A29U, A52C, U53G, A54G
B23: target 2 MT 5'PFS AAA 3'PFS CUU (mixed)
RNA 1: B5 RNA 1
RNA 2: B5 RNA 2 with U27A, U28A, A52C, A54U
B24: target 2 MT 5'PFS CUU 3'PFS UAC (mixed)
RNA 1: B5 RNA 1
RNA 2: B5 RNA 2 with U27C, A29U, A52U, U53A, A54C
B25: target 2 MT 5'PFS AAU 3'PFS UUA (mixed)
RNA 1: B5 RNA 1
RNA 2: B5 RNA 2 with U27A, U28A, A29U, A52U
B26: target 2 MT 5'PFS AAA 3'PFS CUC (mixed)
RNA 1: B5 RNA 1
RNA 2: B5 RNA 2 with U27A, U28A, A52C, A54C
B27: target 2 MT 5'PFS CUU 3'PFS UAG (mixed)
RNA 1: B5 RNA 1
RNA 2: B5 RNA 2 with U27C, A29U, A52U, U53A, A54G
B28: target 2 MT 5'PFS AGG 3'PFS CGC (mixed)
RNA 1: B5 RNA 1
RNA 2: B5 RNA 2 with U27A, U28G, A29G, A52C, U53G, A54C
B29: target 2 MT 5'PFS ACU 3'PFS CGC (mixed)
RNA 1: B5 RNA 1
RNA 2: B5 RNA 2 with U27A, U28C, A29U, A52C, U53G, A54C
B30: target 2 MT 5'PFS AUG 3'PFS UCC (mixed)
RNA 1: B5 RNA 1
RNA 2: B5 RNA 2 with U27A, A29G, A52U, U53C, A54C
B31: target 2 MT 5'PFS CGA 3'PFS CCG (mixed)
RNA 1: B5 RNA 1
RNA 2: B5 RNA 2 with U27C, U28G, A52C, U53C, A54G
B32: target 2 MT 5'PFS AAU 3'PFS UUU (mixed)
RNA 1: B5 RNA 1
RNA 2: B5 RNA 2 with U27A, U28A, A29U, A52U, A54U
B33: target 2 MT 5'PFS AAU 3'PFS UUC (mixed)
RNA 1: B5 RNA 1
RNA 2: B5 RNA 2 with U27A, U28A, A29U, A52U, A54C
B34: target 2 MT 5'PFS UUA 3'PFS AUU (mixed)
RNA 1: B5 RNA 1
RNA 2: B5 RNA 2 with A54U
B35: target 2 MT 5'PFS CUU 3'PFS UAA (mixed)
RNA 1: B5 RNA 1
RNA 2: B5 RNA 2 with U27C, A29U, A52U, U53A
B36: target 2 MT 5'PFS ACU 3'PFS CGU (mixed)
RNA 1: B5 RNA 1
RNA 2: B5 RNA 2 with U27A, U28C, A29U, A52C, U53G, A54U
B37: target 2 MT 5'PFS GGG 3'PFS CUG (mixed)
RNA 1: B5 RNA 1
RNA 2: B5 RNA 2 with U27G, U28G, A29G, A52C, A54G
B38: target 2 MT 5'PFS CAU 3'PFS UCG (mixed)
RNA 1: B5 RNA 1
RNA 2: B5 RNA 2 with U27C, U28A, A29U, A52U, U53C, A54G

These binders were tested against T1, EsCas13d, nuclease-dead (assay: crRNA (strand 1, pre-loaded); Mg2+; 40 mM Tris-HCl pH 7.5, 150 mM NaCl, 6 mM MgCl2, 1 mM DTT, 0.1% Tween-20, 0.2 mg/ml BSA; 25 C; 10 min per concentration, then washed). Details: tags: His6-TwinStrep-SUMO cleaved; N-terminal SNAP kept (SNAP-Surface 488); label: 3' end held by stalled T7 RNA polymerase.

Binder	Kd [nM]
B1	11.8 ± 0.6
B2	26.2 ± 2.8
B3	71 ± 28
B4	8.5 ± 0.6
B5	27 ± 6
B6	~5.7
B7	8.2 ± 1.3
B8	14.2 ± 1.4
B9	17.7 ± 2.6
B10	15 ± 5
B11	3.22 ± 0.27
B12	8.7 ± 1.6
B13	4.1 ± 0.4
B14	50 ± 13
B15	15.5 ± 1.6
B16	31 ± 8
B17	9.5 ± 1.9
B18	17.4 ± 2.6
B19	6.3 ± 0.9

Binder	Kd [nM]
B20	10.9 ± 1.9
B21	9.6 ± 2.3
B22	3.47 ± 0.28
B23	3.9 ± 0.6
B24	4.9 ± 0.6
B25	6.5 ± 0.8
B26	6.5 ± 1.2
B27	4.3 ± 0.8
B28	4.7 ± 0.5
B29	7.1 ± 1
B30	24.4 ± 2.8
B31	11.1 ± 1.6
B32	12.4 ± 2.5
B33	9.7 ± 1.5
B34	18.5 ± 1.4
B35	3 ± 0.32
B36	8.1 ± 1.3
B37	11.7 ± 1
B38	3.8 ± 0.4
